The assay concerns the target 10th and 11th cadherin repeat domains of the Plutella xylostella cadherin (PxCR10–11), GST-tagged (Plutella xylostella). Briefly: BLI; Octet Red 96; GST-tagged PxCR10–11 loaded onto anti-GST biosensors; toxin 38.5 to 576.9 nM in solution; 400 s association, 400 s dissociation; 10 mM GSH, 50 mM Tris, pH 8.0; 1:1 binding model. In general terms: Biolayer interferometry detects binding as a change in optical thickness at a sensor tip.

These results are taken from article PMC6783867.

Usually Kd stands for the equilibrium constant for the complex coming apart. Low values mean a tighter complex, high ones a looser complex. The substance “Cry2Ab–AVM bioconjugate (Cry2Ab30 conjugated with 4''-O-succinyl avermectin)” yielded a Kd of 3.44 nM.
To “Cry2Ab–AVMd (Cry2Ab30 conjugated with 4'',5-O-succinyl avermectin)” belongs 71.9 nM.
